Assay results taken from patent publication US20210380678A1 (published 2021).
Each block holds one binder with its values, some of them ahead of it.

Columns and labels:
[1] = molecular target: T1, human ASGR1 extracellular domain (hASGR1 ECD) (UniProt P07306 62-291, biotinylated (His-Avi tag)); assay: BLI; steady-state fit
T1 chain: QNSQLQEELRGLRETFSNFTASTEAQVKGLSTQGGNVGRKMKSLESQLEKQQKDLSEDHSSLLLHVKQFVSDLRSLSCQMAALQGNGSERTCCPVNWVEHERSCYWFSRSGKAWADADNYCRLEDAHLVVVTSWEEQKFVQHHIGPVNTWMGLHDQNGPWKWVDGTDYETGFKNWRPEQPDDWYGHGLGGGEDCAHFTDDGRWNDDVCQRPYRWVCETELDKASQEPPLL

[2] = molecular target: T2, human ASGR2 extracellular domain (hASGR2 ECD) (UniProt P07307 86-311, biotinylated (His/Avi tag)); assay: BLI
T2 chain: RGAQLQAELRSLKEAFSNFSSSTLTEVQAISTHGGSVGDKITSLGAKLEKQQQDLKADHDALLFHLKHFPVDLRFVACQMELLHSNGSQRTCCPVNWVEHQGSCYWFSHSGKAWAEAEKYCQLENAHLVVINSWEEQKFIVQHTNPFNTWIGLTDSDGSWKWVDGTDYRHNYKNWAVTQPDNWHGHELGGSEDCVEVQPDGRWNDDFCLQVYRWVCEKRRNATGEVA

[3] = molecular target: T3, human RNF43 extracellular domain (hRNF43 ECD) (UniProt Q68DV7 44-197, biotinylated (His-Avi tag)); assay: BLI steady-state
T3 chain: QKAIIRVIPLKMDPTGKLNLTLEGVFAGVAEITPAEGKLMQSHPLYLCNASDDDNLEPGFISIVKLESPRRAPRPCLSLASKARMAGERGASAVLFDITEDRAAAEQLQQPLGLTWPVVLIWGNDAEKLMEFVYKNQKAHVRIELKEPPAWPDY

[4] = molecular target: T4, human ZNRF3 extracellular domain (hZNRF3 ECD) (UniProt Q9ULT6 56-219, biotinylated (His-Avi tag)); assay: BLI steady-state
T4 chain: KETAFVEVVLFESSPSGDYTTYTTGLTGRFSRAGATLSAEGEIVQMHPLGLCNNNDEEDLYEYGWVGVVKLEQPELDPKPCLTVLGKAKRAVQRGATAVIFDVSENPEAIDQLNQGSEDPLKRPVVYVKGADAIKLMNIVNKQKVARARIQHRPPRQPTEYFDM

[5] = molecular target: T1, human ASGR1 extracellular domain …; assay: BLI
[6] = molecular target: T3, human RNF43 extracellular domain …; assay: BLI; steady-state fit
[7] = molecular target: T4, human ZNRF3 extracellular domain …; assay: BLI; steady-state fit
[8] = molecular target: T5, Fc portion of human IgG1-fused LGR5-ECD (R&D systems) (UniProt O75473 22-557); assay: BLI steady-state
T5 chain: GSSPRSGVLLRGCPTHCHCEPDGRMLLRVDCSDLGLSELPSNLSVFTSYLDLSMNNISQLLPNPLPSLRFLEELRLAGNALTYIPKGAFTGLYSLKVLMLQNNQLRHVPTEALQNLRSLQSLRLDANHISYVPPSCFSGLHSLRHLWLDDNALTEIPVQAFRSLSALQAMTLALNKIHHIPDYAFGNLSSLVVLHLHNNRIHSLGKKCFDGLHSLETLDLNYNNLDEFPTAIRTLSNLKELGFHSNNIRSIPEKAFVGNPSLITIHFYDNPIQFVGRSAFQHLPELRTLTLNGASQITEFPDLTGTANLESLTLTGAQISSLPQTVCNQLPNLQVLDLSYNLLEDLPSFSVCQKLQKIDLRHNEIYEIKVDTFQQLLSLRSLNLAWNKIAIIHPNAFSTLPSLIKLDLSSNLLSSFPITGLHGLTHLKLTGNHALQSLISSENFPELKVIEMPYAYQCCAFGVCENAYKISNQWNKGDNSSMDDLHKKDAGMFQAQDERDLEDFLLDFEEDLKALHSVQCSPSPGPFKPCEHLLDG

[9] = molecular target: T1, human ASGR1 extracellular domain …; assay: BLI
[10] = molecular target: T6, mouse ASGR1 extracellular domain (mASGR1 ECD) (biotinylated (His-Avi tag)); assay: BLI
T6 chain: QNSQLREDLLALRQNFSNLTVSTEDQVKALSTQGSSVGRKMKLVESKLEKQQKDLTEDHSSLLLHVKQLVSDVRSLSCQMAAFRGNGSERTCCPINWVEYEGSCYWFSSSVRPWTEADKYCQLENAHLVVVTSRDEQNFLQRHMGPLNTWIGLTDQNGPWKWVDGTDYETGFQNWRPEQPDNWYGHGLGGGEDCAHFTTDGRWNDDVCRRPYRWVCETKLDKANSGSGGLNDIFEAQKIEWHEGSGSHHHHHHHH

Kd [1]: 0.18 µM
B1: 024S-E03 Fab (Fab, V domains shown)
VH: QVQLQQSGPGLVKPSQTLSLTCAISGASVSSNSAAWNWIRQSPSRGLEWLGRTYYRSKWYNDYAVSVKSRITINPDTSKNQFSLQLNSVTPGDTAVYYCARWNHEEHYFDYWGQGTLVTVSS
VL: DVVMTQSPATLSFSPGERATLSCRASQSVGSYLAWYQQRPGQAPRPLIYDATNRATGIPTRFSGSGSGTDFTLTISSLEPEDFATYYCQHRRTFGRGTKLEIK

Kd [1]: 0.13 µM
B2: 024S-D03 Fab (Fab, V domains shown)
VH: QVQLQQSGPGLVKPSQTLSLTCAISGDSVSSNSAAWNWMRQSPSRGLEWLGRTYYRSKWYNDYAVSVKSRMTINPDTSRNQFSLQLNSVTLEDTAVYYCARWNHEEHYFDYWGQGTLVTVSS
VL: EIVLTQSPATLSFSPGERATLSCRASQSVGSYLAWYQQRPGQAPRPLIYDATNRATGIPTRFSGSGSGTDFTLTISSLEPEDFATYYCQHRRTFGRGTKLEIK

Kd [1]: 0.1 µM
B3: 024S-A04 Fab (Fab, V domains shown)
VH: QVQLQQSGPGLVKPSQTLSLTCAISGDSVSSNSVAWNWMRQSPSRGLEWLGRTYYRSKWYYDYAVSVKSRITINPDTSKNQFSLQLNSVTPEDTAVYYCASWTRGAFDIWGQGTMVTVSS
VL: DIQLTQSPATLSFSPGERATLSCRASQSVGSYLAWYQQRPGQAPRPLIYDATNRATGIPTRFSGSGSGTDFTLTISSLEPEDFATYYCQHRRTFGRGTKLEIK

Kd [2]: 0.23 µM
B4: Abv-10B8 Fab (Fab, V domains shown)
VH: DVKLVESGEGLVKPGGSLKLSCAASGFTFSSYAMSWVRQTPEKRLEWVAYISSGGDYIYYVDTVKGRFTISRDNARNTLYLQMSSLKSEDTAVYYCTREGTGGMDYWGQGTSVTVSS
VL: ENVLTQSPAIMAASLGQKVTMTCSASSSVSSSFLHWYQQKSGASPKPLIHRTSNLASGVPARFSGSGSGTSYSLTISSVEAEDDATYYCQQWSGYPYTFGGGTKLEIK

Kd [3]: 0.031 µM
Kd [4]: 0.17 µM
B5: αGFP-RSPO2-RA (anti-GFP, RSPO2 (F105R/F109A)) (other)
chain: QVQLVESGGGLVQPGGSLRLSCAASGFTFSRYGMHWVRQAPGKGLEWVSGISSIGSNTYYADSVKGRFTISRDNSKNTLYLQMNSLRAEDTAVYYCARWYKTYIDVWGQGTLVTVSSGGGGSGGGGSGGGGSDIELTQPPSVSVAPGQTARISCSGDNLGKKYVYWYQQKPGQAPVLVIYGDDERPSGIPERFSGSNSGNTATLTISGTQAEDEADYYCASYDSSHILIVFGGGTKLTVLGSGGSNPICKGCLSCSKDNGCSRCQQKLFFFLRREGMRQYGECLHSCPSGYYGHRAPDMNRCARCRIENCDSCRSKDACTKCKVGFYLHRGRCFDECPDGFAPLEETMECVEGGDYKDDDDKGSHHHHHHHH

Kd [3]: 0.042 µM
Kd [4]: 0.16 µM
B6: αGFP-RSPO2-WT (anti-GFP, RSPO2 wild type) (other)
chain: QVQLVESGGGLVQPGGSLRLSCAASGFTFSRYGMHWVRQAPGKGLEWVSGISSIGSNTYYADSVKGRFTISRDNSKNTLYLQMNSLRAEDTAVYYCARWYKTYIDVWGQGTLVTVSSGGGGSGGGGSGGGGSDIELTQPPSVSVAPGQTARISCSGDNLGKKYVYWYQQKPGQAPVLVIYGDDERPSGIPERFSGSNSGNTATLTISGTQAEDEADYYCASYDSSHILIVFGGGTKLTVLGSGGSNPICKGCLSCSKDNGCSRCQQKLFFFLRREGMRQYGECLHSCPSGYYGHRAPDMNRCARCRIENCDSCFSKDFCTKCKVGFYLHRGRCFDECPDGFAPLEETMECVEGGDYKDDDDKGSHHHHHHHH

Kd [5]: 0.0073 µM
B7: LP1-2I13 Fab (Fab, V domains shown)
VH: EVQLVESGGGLVKPGGSRKLSCAASGFTFSDYGMHWVRQAPEKGLEWVAYISSGSSTIYYADTVKGRFTISRDNAKNTLFLQMTSLRSEDTAMYYCSRKGGFGDYEKSYAMDYWGQGTSVTVSS
VL: DIQMTQSPASLSASVGETVTITCRASENIYSYLVWYQQKQGKSPQLLVYNAKTLAEGVPSRFSGSGSGTQFSLKINSLQPEDFGSYYCQHHYGTWTFGGGIKLEIK

Kd [6]: 0.044 µM
Kd [7]: 0.072 µM
Kd [8]: 0.005 µM
B8: αTFR1-RSPO2-WT (anti-TFR1, RSPO2 wild type) (other)
chain: QVQLQQSGPELVRPGVSVKISCKGSGYTFTDYAMHWVKQSHAKSLEWIGGISTYFGRTNYNQKFKGRATMTVDKSSSTAYMELARLTSEDSALYYCARGLSGNYVMDYWGQGTSVTVSSGGGGSGGGGSGGGGSDIVLFQSPASLAVSLGQRATISCRASESVDDYGNSFMHWYQQKPGQPPKLLIYRASNLESGIPARFSGSGSRTDFTLTINPVEADDVATYYCQQSNEAPPTFGGGTKLEIRGSGGSNPICKGCLSCSKDNGCSRCQQKLFFFLRREGMRQYGECLHSCPSGYYGHRAPDMNRCARCRIENCDSCFSKDFCTKCKVGFYLHRGRCFDECPDGFAPLEETMECVEGGDYKDDDDKGSHHHHHHHH

Kd [6]: 0.045 µM
Kd [7]: 0.075 µM
B9: αTFR1-RSPO2-RA (anti-TFR1, RSPO2 (F105R/F109A)) (other)
chain: QVQLQQSGPELVRPGVSVKISCKGSGYTFTDYAMHWVKQSHAKSLEWIGGISTYFGRTNYNQKFKGRATMTVDKSSSTAYMELARLTSEDSALYYCARGLSGNYVMDYWGQGTSVTVSSGGGGSGGGGSGGGGSDIVLFQSPASLAVSLGQRATISCRASESVDDYGNSFMHWYQQKPGQPPKLLIYRASNLESGIPARFSGSGSRTDFTLTINPVEADDVATYYCQQSNEAPPTFGGGTKLEIRGSGGSNPICKGCLSCSKDNGCSRCQQKLFFFLRREGMRQYGECLHSCPSGYYGHRAPDMNRCARCRIENCDSCRSKDACTKCKVGFYLHRGRCFDECPDGFAPLEETMECVEGGDYKDDDDKGSHHHHHHHH

Kd [2]: 0.11 µM
B10: Abv-3D11 Fab (Fab, V domains shown)
VH: EVQLVESGGGLVQPKGSLKLSCAASGFSFNTYAMNWVRQAPGKGLEWVARIRSKSNNYATYYADSVKDRFTISRDDSESMLYLQMNNLKTEDTAMYYCVRPRYDYWYFDVWGTGTTVTVSS
VL: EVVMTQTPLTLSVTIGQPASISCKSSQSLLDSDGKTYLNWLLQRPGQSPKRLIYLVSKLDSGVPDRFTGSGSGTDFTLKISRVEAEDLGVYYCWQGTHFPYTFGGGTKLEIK

Kd [5]: 0.00017 µM
B11: LP1-8M24 Fab (Fab, V domains shown)
VH: QVQLQQSGAELARPGASVKLSCKASGYTFTNYGINWVKQRTGQGLEWIGEIFPRSDNTFYNEKFKGKATLTADKSSTTAYMELRSLTSEDSAVYFCARKGRDYGTSHYFDYWGQGTTLTVSS
VL: DIQMTQSPASLSVSVGETVTITCRISENIYSNLAWYQQKQGKSPHLLVYAAINLADGVPSRFSGSGSGTQFSLKINSLQSEDFGSYYCQHFWGTPFTFGSGTKLEIK

Kd [9]: 0.349 µM
Kd [10]: 0.213 µM
B12: anti-ASGR1 Fab (Fab, V domains shown)
VH: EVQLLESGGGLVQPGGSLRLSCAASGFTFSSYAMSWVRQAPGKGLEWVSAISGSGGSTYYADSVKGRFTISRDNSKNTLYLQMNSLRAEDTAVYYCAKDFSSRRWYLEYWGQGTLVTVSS
VL: DIELTQDPAVSVALGQTVRITCQGDSLRSYYASWYQQKPGQAPVLVIYGKNNRPSGIPDRFSGSSSGNTASLTITGAQAEDEADYYCNSLERIGYLSYVFGGGTKLTVLG
